Earlier results as cited in paper PMC6321638.

Biological target: ALG-2 (Homo sapiens) (UniProt O75340)
Experiment: SPR

Chain of ALG-2 (Homo sapiens) (O75340 2-191): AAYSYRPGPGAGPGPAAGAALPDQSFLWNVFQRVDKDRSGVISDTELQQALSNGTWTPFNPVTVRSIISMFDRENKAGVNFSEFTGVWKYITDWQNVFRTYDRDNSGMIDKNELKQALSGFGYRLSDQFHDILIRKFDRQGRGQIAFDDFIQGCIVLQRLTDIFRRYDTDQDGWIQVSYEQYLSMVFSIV

## ALIX peptide
  Kd: 0.2 µM
